Laboratory results as given in US20240400708A1.
Residue numbers refer to the chain shown, from its start. In names and notes the source's numbering stands.

B1: feline IgG1a Fc mutant S428L, S434Y (antibody, part only; not given: Variable domains, not shown: another chain or arm of the molecule; small tags and cut ends)
constant: ASTTAPSVFPLAPSCGTTSGATVALACLVLGYFPEPVTVSWNSGALTSGVHTFPAVLQASGLYSLSSMVTVPSSRWLSDTFTCNVAHPPSNTKVDKTVRKTDHPPGPKPCDCPKCPPPEMLGGPSIFIFPPKPKDTLSISRTPEVTCLVVDLGPDDSDVQITWFVDNTQVYTAKTSPREEQFNSTYRVVSVLPILHQDWLKGKEFKCKVNSKSLPSPIERTISKAKGQPHEPQVYVLPPAQEELSRNKVSVTCLIKSFHPPDIAVEWEITGQPEPENNYRTTPPQLDSDGTYFVYSKLSVDRSHWQRGNTYTCSVLHEALHYHHTQKSLTQSPGK
B2: feline IgG1a Fc mutant S428L, S434H (antibody, part only; not given: Variable domains, not shown: another chain or arm of the molecule; small tags and cut ends)
constant: B1 constant with Y322H
B3: feline IgG1a Fc mutant S428L, S434F (antibody, part only; not given: Variable domains, not shown: another chain or arm of the molecule; small tags and cut ends)
constant: B1 constant with Y322F
B4: feline IgG1a Fc mutant S428L, S434W (antibody, part only; not given: Variable domains, not shown: another chain or arm of the molecule; small tags and cut ends)
constant: B1 constant with Y322W
B5: feline IgG1a Fc mutant S428M, S252Y (antibody, part only; not given: Variable domains, not shown: another chain or arm of the molecule; small tags and cut ends)
constant: B1 constant with S138Y, L316M, Y322S
B6: feline IgG1a Fc mutant Q311W, S428M (antibody, part only; not given: Variable domains, not shown: another chain or arm of the molecule; small tags and cut ends)
constant: B1 constant with Q197W, L316M, Y322S
B7: feline IgG1a Fc mutant Q311H, S428M (antibody, part only; not given: Variable domains, not shown: another chain or arm of the molecule; small tags and cut ends)
constant: B1 constant with Q197H, L316M, Y322S
B8: feline IgG1a Fc mutant Q311K, S428M (antibody, part only; not given: Variable domains, not shown: another chain or arm of the molecule; small tags and cut ends)
constant: B1 constant with Q197K, L316M, Y322S
B9: feline IgG1a Fc mutant Q311L, S428M (antibody, part only; not given: Variable domains, not shown: another chain or arm of the molecule; small tags and cut ends)
constant: B1 constant with Q197L, L316M, Y322S
B10: feline IgG1a Fc mutant Q311M, S428M (antibody, part only; not given: Variable domains, not shown: another chain or arm of the molecule; small tags and cut ends)
constant: B1 constant with Q197M, L316M, Y322S
B11: feline IgG1a Fc mutant Q311R, S428M (antibody, part only; not given: variable domains and light chain, not shown: another chain or arm of the molecule; small tags and cut ends)
constant: B1 constant with Q197R, L316M, Y322S
B12: feline IgG1a Fc mutant S428M, S434Y (antibody, part only; not given: Variable domains, not shown: another chain or arm of the molecule; small tags and cut ends)
constant: B1 constant with L316M
B13: feline IgG1a Fc mutant S428M, S434R (antibody, part only; not given: variable domains, not shown: another chain or arm of the molecule; small tags and cut ends)
constant: B1 constant with L316M, Y322R
B14: feline IgG1a Fc mutant S428M, S434H (antibody, part only; not given: Variable domains, not shown: another chain or arm of the molecule; small tags and cut ends)
constant: B1 constant with L316M, Y322H
B15: feline IgG1a Fc mutant S428M, S434F (antibody, part only; not given: variable domains and light chain, not shown: another chain or arm of the molecule; small tags and cut ends)
constant: B1 constant with L316M, Y322F
B16: feline IgG1a Fc mutant S428M, S434W (antibody, part only; not given: Variable domains, not shown: another chain or arm of the molecule; small tags and cut ends)
constant: B1 constant with L316M, Y322W
B17: feline IgG1a Fc mutant S428Y, S252H (antibody, part only; not given: Variable domains, not shown: another chain or arm of the molecule; small tags and cut ends)
constant: B1 constant with S138H, L316Y, Y322S
B18: feline IgG1a Fc mutant S428Y, S252Y (antibody, part only; not given: Variable domains, not shown: another chain or arm of the molecule; small tags and cut ends)
constant: B1 constant with S138Y, L316Y, Y322S
B19: feline IgG1a Fc mutant S428Y, S252F (antibody, part only; not given: Variable domains, not shown: another chain or arm of the molecule)
constant: B1 constant with S138F, L316Y, Y322S
B20: feline IgG1a Fc mutant S428Y, S252W (antibody, part only; not given: Variable domains, not shown: another chain or arm of the molecule)
constant: B1 constant with S138W, L316Y, Y322S
B21: feline IgG1a Fc mutant Q311Y, S428Y (antibody, part only; not given: Variable domains, not shown: another chain or arm of the molecule)
constant: B1 constant with Q197Y, L316Y, Y322S
B22: feline IgG1a Fc mutant Q311W, S428Y (antibody, part only; not given: Variable domains, not shown: another chain or arm of the molecule)
constant: B1 constant with Q197W, L316Y, Y322S
B23: feline IgG1a Fc mutant Q311H, S428Y (antibody, part only; not given: Variable domains, not shown: another chain or arm of the molecule)
constant: B1 constant with Q197H, L316Y, Y322S
B24: feline IgG1a Fc mutant Q311K, S428Y (antibody, part only; not given: Variable domains, not shown: another chain or arm of the molecule)
constant: B1 constant with Q197K, L316Y, Y322S
B25: feline IgG1a Fc mutant Q311L, S428Y (antibody, part only; not given: Variable domains, not shown: another chain or arm of the molecule)
constant: B1 constant with Q197L, L316Y, Y322S
B26: feline IgG1a Fc mutant Q311M, S428Y (antibody, part only; not given: variable domains, not shown: another chain or arm of the molecule; small tags and cut ends)
constant: B1 constant with Q197M, L316Y, Y322S
B27: feline IgG1a Fc mutant Q311R, S428Y (antibody, part only; not given: Variable domains, not shown: another chain or arm of the molecule; small tags and cut ends)
constant: B1 constant with Q197R, L316Y, Y322S
B28: feline IgG1a Fc mutant S428Y, S434Y (antibody, part only; not given: variable domains and light chain, not shown: another chain or arm of the molecule; small tags and cut ends)
constant: B1 constant with L316Y
B29: feline IgG1a Fc mutant S428Y, S434R (antibody, part only; not given: Variable domains, not shown: another chain or arm of the molecule; small tags and cut ends)
constant: B1 constant with L316Y, Y322R
B30: feline IgG1a Fc mutant S428Y, S434H (antibody, part only; not given: Variable domains, not shown: another chain or arm of the molecule; small tags and cut ends)
constant: B1 constant with L316Y, Y322H
B31: feline IgG1a Fc mutant S428Y, S434F (antibody, part only; not given: Variable domains, not shown: another chain or arm of the molecule; small tags and cut ends)
constant: B1 constant with L316Y, Y322F
B32: feline IgG1a Fc mutant S428Y, S434W (antibody, part only; not given: variable domains and light chain, not shown: another chain or arm of the molecule; small tags and cut ends)
constant: B1 constant with L316Y, Y322W

Assays:
[1] = target: Feline FcRn complex (FcRn-alpha subunit and beta-microglobulin) (feline); assay: SPR (Biacore), feline FcRn captured on SA chip, IgG flowed over, pH 6
[2] = target: Feline FcRn complex (FcRn-alpha subunit and beta-microglobulin) (feline); assay: SPR (Biacore), feline FcRn captured on SA chip, IgG flowed over, pH 7.4

| Binder | Kd [1] | Kd [2] |
| --- | --- | --- |
| B1 | 0.933 nM | 22.2 nM |
| B2 | 2.58 nM | 43.9 nM |
| B3 | 1.39 nM | 46.4 nM |
| B4 | 1.02 nM | 41.8 nM |
| B5 | 5.12 nM | 124 nM |
| B6 | 6.51 nM |  |
| B7 | 6.58 nM |  |
| B8 | 6.16 nM |  |
| B9 | 5.7 nM |  |
| B10 | 5.66 nM |  |
| B11 | 5.28 nM |  |
| B12 | 0.888 nM | 25.2 nM |
| B13 | 5.46 nM |  |
| B14 | 3.09 nM |  |
| B15 | 1.21 nM | 38.2 nM |
| B16 | 0.937 nM | 25.3 nM |

| Binder | Kd [1] | Kd [2] |
| --- | --- | --- |
| B17 | 6.41 nM |  |
| B18 | 8.58 nM |  |
| B19 | 6.62 nM |  |
| B20 | 2.95 nM |  |
| B21 | 5.57 nM |  |
| B22 | 6.35 nM |  |
| B23 | 6.92 nM |  |
| B24 | 3.31 nM | 35.9 nM |
| B25 | 4.74 nM |  |
| B26 | 5.72 nM |  |
| B27 | 4.81 nM |  |
| B28 | 1.12 nM | 24.1 nM |
| B29 | 3.85 nM |  |
| B30 | 2.27 nM |  |
| B31 | 1.57 nM | 39.7 nM |
| B32 | 1.39 nM | 24.1 nM |
